A short description of data set [1]: Determination of catalase activity (decomposition of H2O2 at 240 nm). It counts as biochemical. The following applies: after solubilization and release from the polymer capsules; uncoated catalase measured the same way for comparison. Here is the method:
The enzyme was released from the polymer capsules by exposure to ultrasound for 5 min at 20° C. in 1 M phosphate buffer at pH 7 (this caused rupturing of the polymer walls). The catalase activity was determined using a standard enzyme activity assay (Biochemica Information, 15-16 Boehringer Mannheim (1987); Tijsen, Practice and Theory of Enzyme Immunoassays, 8th Impression (1993), Elsevier, 202-203): that is, by measuring the decomposition of the substrate hydrogen peroxide (H2O2) at 240 nm. The concentration of the catalase was determined spectrophotometrically at 280 nm and 405 nm (soret band). The specific acitvity of the uncoated catalase was measured in the same way and used for comparison.

The subject of data set [2] is protease (Streptomyces griseus). The data set is described as follows: Proteolysis experiment (decrease in catalase enzyme activity on protease incubation). The format is biochemical. The following applies: incubation time of 100 min, 37° C., pH 7; starting activity normalized to 100%. As for the experimental part: 10 mg of protease (Streptomyces griseus; Sigma P6911; activity=5.2 U/mg solid) was dissolved in 500 μl of phosphate buffered saline (PBS, pH 7.0)(100 U/ml) and used as the stock solution. 200 μl samples of the polyelectrolyte-coated catalase and solubilized catalase where separately incubated in a water bath at 37° C. with either 30 μl of the stock protease solution of 30 μl of PBS (control experiment). The starting activity of the catalase for all samples was approximately 12000 U/ml catalase. The starting activities were normalized to 100%. The final protease activity in the sample was […]. Proteolysis of the catalase was determined by measuring the decrease in the catalase enzyme activity. The catalase activity measurements where carried out according to the previously described method (i.e. by spectrophotometric detection (240 nm) of the decomposition of hydrogen peroxide, see Tijsen, Practice and Theory of Enzyme Immunoassays, Elsevier, 8th Impression (1993), pp. 202-203.15). 5 μl samples were diluted and used for the activity measurements.

Data set [3] in a line: Electrophoretic mobility / Zeta-potential measurement. The settings on record: water at pH 5; by electrophoretic mobility. The format is physicochemical. Here is the method: Electrophoretic mobilities of the uncoated and polymer-multilayer coated enzyme crystals were measured using a Malvern Zetasizer 4 as described elsewhere (Caruso et al., J. Phys. Chem. B 102, 2011-2116 (1998); Sukhorukov, G. B. et al., Polym. Adv. Technol. 9, 759-767 (1998); Donath et al., Angew. Chem. Int. Ed. 37, 2201-2205 (1998). The mobility u was converted into a ξ-potential using the Smoluchowski relation ξ=uη/ε, where η and ε are the viscosity and permittivity of the solution, respectively. Atomic force microscopy (AFM) images were obtained using a Digital Instruments Nanoscope IIIa AFM in tapping mode (TM) on samples deposited onto cleaned glass slides and air-dried. Samples for transmission electron microscopy (TEM) were prepared by deposition of aqueous solutions of the hollow polymer capsules upon a carbon-coated copper grid, allowing them to air dry for one minute, and then blotting off the extra solution.

B1: catalase (protein, UniProt P00432 2-527, looked up)
Catalase: ADNRDPASDQMKHWKEQRAAQKPDVLTTGGGNPVGDKLNSLTVGPRGPLLVQDVVFTDEMAHFDRERIPERVVHAKGAGAFGYFEVTHDITRYSKAKVFEHIGKRTPIAVRFSTVAGESGSADTVRDPRGFAVKFYTEDGNWDLVGNNTPIFFIRDALLFPSFIHSQKRNPQTHLKDPDMVWDFWSLRPESLHQVSFLFSDRGIPDGHRHMNGYGSHTFKLVNANGEAVYCKFHYKTDQGIKNLSVEDAARLAHEDPDYGLRDLFNAIATGNYPSWTLYIQVMTFSEAEIFPFNPFDLTKVWPHGDYPLIPVGKLVLNRNPVNYFAEVEQLAFDPSNMPPGIEPSPDKMLQGRLFAYPDTHRHRLGPNYLQIPVNCPYRARVANYQRDGPMCMMDNQGGAPNYYPNSFSAPEHQPSALEHRTHFSGDVQRFNSANDDNVTQVRTFYLKVLNEEQRKRLCENIAGHLKDAQLFIQKKAVKNFSDVHPEYGSRIQALLDKYNEEKPKNAVHTYVQHGSHLSAREKANL
modifications: crystals
notes: catalase enzyme crystals (Sigma, C-100), uncoated template and comparison
Regarding B1, the recovered specific activity in data set [1] turned out to be 100%. Further, the inactivation by protease in data set [2] is over 90%. Besides, the “Zeta potential (surface charge)” value in data set [3] was “+20 mV”.
